Data as given in IntAct's records for PubMed 17341134.

Target: cdk5_rat Cdk5 (UniProt Q03114)

effect of a mutation on the interaction | Substance
decreasing interaction | BDNF/NT-3 growth factors receptor (Rattus norvegicus (Rat)), Q63604 S478A
decreasing interaction | BDNF/NT-3 growth factors receptor (Rattus norvegicus (Rat)), Q63604 T489A
